{"source": "paper PMC4319893", "about": "“Targeting Protein-Protein Interactions with Trimeric Ligands: High Affinity Inhibitors of the MAGUK Protein Family” (PLoS ONE, 2015)", "assay_in_all_cases": "fluorescence polarisation; monomeric FP assay with monomeric fluorescent peptide probes (PSD-95 PDZ1-2, PDZ1-2-3 and single PDZ domains); 50 mM TRIS, 100 mM NaCl, 1 mM EDTA, 1 mM DTT", "key": {"[1]": {"target": "PSD-95 PDZ1 (human)"}, "[2]": {"target": "PSD-95 PDZ1-2 (human)"}, "[3]": {"target": "PSD-95 PDZ1-2-3 (human)"}, "[4]": {"target": "PSD-95 PDZ2 (human)"}}, "data": [{"substance": "CRIPT hexapeptide YKQTSV (1)", "values": [{"measurement": "affinity", "setting": "[1]", "value": 97, "unit": "µM"}, {"measurement": "fold lower affinity than 17", "setting": "[2]", "value": "> 1000", "unit": "fold"}, {"measurement": "fold lower affinity than 17", "setting": "[3]", "value": "> 1000", "unit": "fold"}, {"measurement": "affinity", "setting": "[4]", "value": 25, "unit": "µM"}]}]}
